T1: human Trop-2 on the surface of cells (CHO/Trop-2 cells; BxPC-3 cells; NCI-N87 cells) (human, UniProt P09758 27-323)
T1 sequence (looked up): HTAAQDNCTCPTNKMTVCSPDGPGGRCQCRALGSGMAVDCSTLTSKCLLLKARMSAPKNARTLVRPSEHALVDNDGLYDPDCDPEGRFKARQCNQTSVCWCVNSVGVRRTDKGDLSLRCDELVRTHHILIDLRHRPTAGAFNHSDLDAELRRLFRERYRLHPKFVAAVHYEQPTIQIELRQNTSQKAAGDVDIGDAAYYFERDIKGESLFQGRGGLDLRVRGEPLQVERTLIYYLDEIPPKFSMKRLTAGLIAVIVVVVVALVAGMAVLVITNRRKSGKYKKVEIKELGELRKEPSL

T2: recombinant human Trop-2-his protein (ACCESSION NO.: NP_002344.2, AA 1-274) (human, UniProt P09758 27-274)
T2 construct: range 27-274; also called recombinant human Trop-2 protein; recombinant human Trop-2 extracellular domain; not shown: his tag
T2 sequence (looked up): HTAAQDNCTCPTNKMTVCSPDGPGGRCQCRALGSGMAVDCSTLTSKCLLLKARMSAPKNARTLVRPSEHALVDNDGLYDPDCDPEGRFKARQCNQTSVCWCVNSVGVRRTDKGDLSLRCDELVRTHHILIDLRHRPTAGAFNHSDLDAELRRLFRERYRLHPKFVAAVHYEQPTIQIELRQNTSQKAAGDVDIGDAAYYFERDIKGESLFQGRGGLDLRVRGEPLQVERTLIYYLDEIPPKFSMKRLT

T3: recombinant mouse Trop-2-his protein (Cat.: 50922-M08H, Beijing Yiqiao Shenzhou Science and Technology Co., … (mouse, UniProt Q8BGV3 25-270))
T3 construct: Bought protein; not shown: his tag
T3 sequence (looked up): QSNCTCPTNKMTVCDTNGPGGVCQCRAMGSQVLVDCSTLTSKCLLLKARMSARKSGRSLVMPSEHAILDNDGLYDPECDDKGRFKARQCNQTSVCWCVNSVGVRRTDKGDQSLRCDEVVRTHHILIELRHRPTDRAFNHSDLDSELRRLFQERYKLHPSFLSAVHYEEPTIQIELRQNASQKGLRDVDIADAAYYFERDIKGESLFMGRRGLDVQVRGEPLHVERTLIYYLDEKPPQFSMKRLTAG

B1: Sacituzumab-SN38 (antibody, human IgG1, kappa, V domains shown)
VH: QVQLQQSGSELKKPGASVKVSCKASGYTFTNYGMNWVKQAPGQGLKWMGWINTYTGEPTYTDDFKGRFAFSLDTSVSTAYLQISSLKADDTAVYFCARGGFGSSYWYFDVWGQGSLVTVSS
VL: DIQLTQSPSSLSASVGDRVSITCKASQDVSIAVAWYQQKPGKAPKLLIYSASYRYTGVPDRFSGSGSGTDFTLTISSLQPEDFAVYYCQQHYITPLTFGAGTKVEIKR
modifications: CL2A-SN-38 conjugated to the DTT-reduced antibody; 7.5 SN38 per antibody; sites not stated
notes: also called Sacituzumab labeled with SN38
B2: h23-12-SN38 (antibody, human IgG1, kappa, V domains shown)
VH: QVQLVQSGAEVKKPGASVKVSCKASGYTFTSYWMHWVRQAPGQGLEWMGEITPSDNYGSYNQKFKGRVTITRDTSTSTAYMELSSLRSEDTAVYYCARGHGNYVSFDYWGQGTLVTVSS
VL: DIQMTQSPSSLSASVGDRVTITCRASQDISNYLNWYQQKPGKAPKLLIYYTSRLESGVPSRFSGSGSGTDFTLTISSLQPEDFATYFCQQGYTLPPYTFGQGTKLEIKR
modifications: CL2A-SN-38 conjugated to the DTT-reduced antibody; 7.5 SN38 per antibody; sites not stated
notes: also called h23-12 labeled with SN38
B3: ch4-3-SN38 (antibody, V domains shown)
VH: QVQLQQSGPELVKPGASVKMSCKASGFTFTDYVIGWVKQRTGQGLEWIGEIYLGSGTIYYTEKFKGKATLTADTSSNTAYMQLSSLTSEDSAVYFCARGSIFPFDYWGQGTTLTVSS
VL: QIVLTQSPAIMSASPGEKVTMTCSASSSVSYMYWYQQKPGSSPRLLIYDTSTLASGVPVRFSGSGSGTSYSLTISRMEAEDAATYYCQQWSSYPYTFGGGTKLEIK
modifications: CL2A-SN-38 conjugated to the DTT-reduced antibody; 7.5 SN38 per antibody; sites not stated
notes: also called ch4-3 labeled with SN38
B4: ch11-4-SN38 (antibody, V domains shown)
VH: QVQLQQPGAELVRPGASVNLSCKASGYTFTSYWINWVKQRPGQGLEWIGNIYPSNSYTNYNQKFKDTATLTVDKSSSTAYMQLSSPTSEDSAVYFCSSYRSDGFAYWGQGTLVTVSA
VL: DILLTQSPAILSVSPGEKVSFSCRASQNIGTSIHWYQQRTNGSPRLLIEFASESISGIPSRFSGSGSGTDFTLTINSVESEDIADYYCQQSNSWPFTFGGGTKLEIK
modifications: CL2A-SN-38 conjugated to the DTT-reduced antibody; 7.5 SN38 per antibody; sites not stated
notes: also called ch11-4 labeled with SN38
B5: m3-11 (antibody, mouse IgG1, V domains shown)
VH: QVQLQQPGAELVKPGSSVKLSCKASGYTFTSYWMYWVKQRPGQGLEWIGEINPSNGRTNYNEKFKSKATLTVDKSSSTAYMQFSSLTSEDSAVYYCTREGHNYDGSLGAMDHWGQGTSVTVSS
VL: DVVVTQTPLSLPVSFGDQVSISCRSSQSLTNSYGNTFLSWYLHKPGQSPQLLLYGISNRFSGVPDRFSGSGSGTDFTLKINTIKPEDLGMYYCFQSTHQPYTFGGGTKLEIK
notes: also called murine antibody 3-11
B6: m11-4 (antibody, mouse IgG1, V domains shown)
VH: B4 VH
VL: B4 VL
notes: also called murine antibody 11-4; ml 1-4
B7: m23-12 (antibody, mouse IgG1, V domains shown)
VH: QVQLQQPGAELVKPGASVKLSCKADGYIFTSYWMHWVKQRPGQGLEWIGEITPSDNYTSYNQKFKGKATLTVDKSSSTAYMQLSSLTSEDSAVYYCTRGHGNYVSFDYWGQGTTLTVSS
VL: DIQMTQITSSLSASLGDRVTITCRASQDISNYLNWYQQKPDGTVKLLIYYTSRLHSGVPSRFSGSGSGTDYSLTISNLEQEDIATYFCQQGYTLPPYTFGGGTKLEIK
notes: also called murine antibody 23-12
B8: m4-3 (antibody, mouse IgG1, V domains shown)
VH: B3 VH
VL: B3 VL
notes: also called murine antibody 4-3

The binders below were run against T1, human Trop-2 on the surface of cells … (assay: cell-based or functional assay).

Row | Internalization percentage, 1 h, NCI-N87 cells, FACS | Binder
1 | 47.5% | B1
2 | 51.1% | B2
3 | 64.6% | B3

What follows are binders tested against T2, recombinant human Trop-2-his protein … (assay: BLI, SN38-labeled antibody on AHC sensor, Trop-2-his 60 nM, 300 s binding).
Experimental: Affinities of the antibodies were determined by an assay including capturing Fc fragments of the antibodies with anti-human IgG Fc capture (AHC) biosensors using Octet QKe system instrument from Fortebio.
For the assay, SN38-labeled antibodies prepared as described above: h23-12-SN38, ch4-3-SN38, ch11-4-SN38, and positive control antibody Sacituzumab-SN38, as well as naked antibodies h23-12, ch4-3, ch11-4, and positive control antibody Sacituzumab were diluted to 4 μg/ml with PBS and allowed to flow through the surface of an AHC biosensor (Cat.: 18-0015, PALL) for 120 s. Recombinant human Trop-2-his protein (ACCESSION NO.: NP_002344.2, AA 1-274) was used as a mobile phase, and its concentration was 60 nM. The binding time was 300 s and the dissociation time was 300 s. When the assay was finished, data from which the response value of blank control had been deducted were fitted to a 1:1 Langmuir binding model using software, and then kinetic constants for antigen-antibody binding were calculated.

Row | Kd | Binder
4 | 0.0734 nM | B4
5 | 0.431 nM | B1
6 | 0.441 nM | B2
7 | 0.177 nM | B3

What follows are binders tested against T3, recombinant mouse Trop-2-his protein … (assay: ELISA, coated mouse Trop-2-his, purified murine antibody).
Experimental: Washed with PBS 3 times, the plates were blocked with the added 5% BSA PBS at 37° C. for 60 min, and then washed 3 times with PBST. The 15 purified murine antibodies were diluted to 1 μg/ml with PBS. Controls as follows were set: (1) Positive Control (PC): Sacituzumab (WHO Drug Information (Vol. 31, No. 1, 2017), SEQ ID NO: 39 and SEQ ID NO: 40), a version having murine IgG constant region, […]; (2) Negative Control (NC): an antibody from an irrelevant hybridoma, 1 μg/ml; (3) blank control: PBS. After incubation at 37° C. for 60 min, the plates were washed 4 times with PBST. […] Afterwards, the plates were washed with PBST 4 times, and TMB substrate was added for color development at 37° C. for 10 min. Then 2M HCl was added to stop reaction; and absorbances at 450 nm and at 630 nm (as reference wavelength) were read, and A450 nm-630 nm values of the wells in the plates were recorded.

Row | binding result | Binder
8 | no binding (tested: 1 µg/ml) | B5
9 | no binding (tested: 1 µg/ml) | B6
10 | no binding (tested: 1 µg/ml) | B7
11 | no binding (tested: 1 µg/ml) | B8

Target: T1, human Trop-2 on the surface of cells …
Assay: cell-based or functional assay
Remark: another data set of the same source

Row | Internalization percentage, 1 h, BXPC-3 cells, FACS | Binder
12 | 51.1% | B4
13 | 32.7% | B1
14 | 20.1% | B2
15 | 57.7% | B3

Target: T1, human Trop-2 on the surface of cells …
Assay: cell-based or functional assay
Remark: another data set of the same source

Row | IC50 (µg/ml), inhibitory activity of anti-Trop-2 ADCs on cell growth, BxPC-3 cells | Binder
16 | 2.88 µg/mL | B4
17 | 4.31 µg/mL | B1
18 | 1.41 µg/mL | B2
19 | 3.3 µg/mL | B3

Source: patent publication US20240092930A1 (MABWELL SHANGHAI BIOSCIENCE, published 2024)
